# Values quoted from earlier work, collected in publication PMC8900815.
# Molecular target: His124 (UniProt position 124, EWVKGHAGHPE)
# Experiment: NMR
# Conditions: metal-free (no divalent cation bound)
substance,measurement,value
Ribonuclease HI (RNase HI) (Escherichia coli),pKa,around 7
